According to US7745159:

Experiments:
[1] = target: antigen defined by MAb OV569 on human carcinoma cell surfaces (human); assay: flow cytometry, OV569 supernatant on lung carcinoma line H3963, against an irrelevant MAb
[2] = target: antigen defined by MAb OV569 on human carcinoma cell surfaces (human); assay: flow cytometry, OV569 supernatant on ovarian carcinoma line H4004, against an irrelevant MAb
[3] = target: antigen defined by MAb OV569 on human carcinoma cell surfaces (human); assay: flow cytometry, OV569 supernatant on ovarian carcinoma line H4002, against an irrelevant MAb
[4] = target: antigen defined by MAb OV569 on human carcinoma cell surfaces (human); assay: flow cytometry, OV569 supernatant on lung carcinoma line H3754, against an irrelevant MAb
[5] = target: antigen defined by MAb OV569 on human carcinoma cell surfaces (human); assay: flow cytometry, OV569 supernatant on ovarian carcinoma line H4014, against an irrelevant MAb
[6] = target: antigen defined by MAb OV569 on human carcinoma cell surfaces (human); assay: flow cytometry, OV569 supernatant on ovarian carcinoma line H4007, against an irrelevant MAb
[7] = target: antigen defined by MAb OV569 on human carcinoma cell surfaces (human); assay: flow cytometry, OV569 supernatant on ovarian carcinoma line H3538, against an irrelevant MAb
[8] = target: antigen defined by MAb OV569 on human carcinoma cell surfaces (human); assay: flow cytometry, OV569 supernatant on lung carcinoma line H4013, against an irrelevant MAb
[9] = target: antigen defined by MAb OV569 on human carcinoma cell surfaces (human); assay: flow cytometry, OV569 supernatant on ovarian carcinoma line H3659.5, against an irrelevant MAb
[10] = target: antigen defined by MAb OV569 on human carcinoma cell surfaces (human); assay: flow cytometry, OV569 supernatant on lung carcinoma line H2987, against an irrelevant MAb
[11] = target: antigen defined by MAb OV569 on human carcinoma cell surfaces (human); assay: flow cytometry, OV569 supernatant on ovarian carcinoma line H3759, against an irrelevant MAb
[12] = target: antigen defined by MAb OV569 on human carcinoma cell surfaces (human); assay: flow cytometry, OV569 supernatant on ovarian carcinoma line H4010-1, against an irrelevant MAb
[13] = target: antigen defined by MAb OV569 on human carcinoma cell surfaces (human); assay: flow cytometry, OV569 supernatant on lung carcinoma line H2981, against an irrelevant MAb
[14] = target: antigen defined by MAb OV569 on human carcinoma cell surfaces (human); assay: flow cytometry, OV569 supernatant on ovarian carcinoma line H3909, against an irrelevant MAb
[15] = target: antigen defined by MAb OV569 on human carcinoma cell surfaces (human); assay: flow cytometry, OV569 supernatant on ovarian carcinoma line H3633, against an irrelevant MAb
[16] = target: antigen defined by MAb OV569 on human carcinoma cell surfaces (human); assay: flow cytometry, OV569 supernatant on lung carcinoma line H3776, against an irrelevant MAb
[17] = target: antigen defined by MAb OV569 on human carcinoma cell surfaces (human); assay: flow cytometry, OV569 supernatant on ovarian carcinoma line H4012, against an irrelevant MAb
[18] = target: antigen defined by MAb OV569 on human carcinoma cell surfaces (human); assay: flow cytometry, OV569 supernatant on ovarian carcinoma line H3907, against an irrelevant MAb
[19] = target: antigen defined by MAb OV569 on human carcinoma cell surfaces (human); assay: flow cytometry, OV569 supernatant on ovarian carcinoma line H3750, against an irrelevant MAb
[20] = target: antigen defined by MAb OV569 on human carcinoma cell surfaces (human); assay: flow cytometry, OV569 supernatant on ovarian carcinoma line H4006, against an irrelevant MAb

- LFE(sample)/LFE(control) [1]: 1.11
- LFE(sample)/LFE(control) [2]: 2.43
- LFE(sample)/LFE(control) [3]: 8.48
- LFE(sample)/LFE(control) [4]: 1.59
- LFE(sample)/LFE(control) [5]: 1
- LFE(sample)/LFE(control) [6]: 8.72
- LFE(sample)/LFE(control) [7]: 2.55
- LFE(sample)/LFE(control) [8]: 7
- LFE(sample)/LFE(control) [9]: 5.63
- LFE(sample)/LFE(control) [10]: 1.25
- LFE(sample)/LFE(control) [11]: 6.74
- LFE(sample)/LFE(control) [12]: 1.12
- LFE(sample)/LFE(control) [13]: 1.3
- LFE(sample)/LFE(control) [14]: 3.84
- LFE(sample)/LFE(control) [15]: 1
- LFE(sample)/LFE(control) [16]: 1.33
- LFE(sample)/LFE(control) [17]: 1
- LFE(sample)/LFE(control) [18]: 3.85
- LFE(sample)/LFE(control) [19]: 2.57
- LFE(sample)/LFE(control) [20]: 2.53
Substance: monoclonal antibody OV569
